For assay [1], the target named is T1, N-terminally polyhistidine tagged human MARCO ECD (147-520), recombinant (human, UniProt Q9UEW3 147-520).
T1 construct: also called PI-RG-3000; recombinant human MARCO; not shown: N-terminal polyhistidine tag
T1 sequence: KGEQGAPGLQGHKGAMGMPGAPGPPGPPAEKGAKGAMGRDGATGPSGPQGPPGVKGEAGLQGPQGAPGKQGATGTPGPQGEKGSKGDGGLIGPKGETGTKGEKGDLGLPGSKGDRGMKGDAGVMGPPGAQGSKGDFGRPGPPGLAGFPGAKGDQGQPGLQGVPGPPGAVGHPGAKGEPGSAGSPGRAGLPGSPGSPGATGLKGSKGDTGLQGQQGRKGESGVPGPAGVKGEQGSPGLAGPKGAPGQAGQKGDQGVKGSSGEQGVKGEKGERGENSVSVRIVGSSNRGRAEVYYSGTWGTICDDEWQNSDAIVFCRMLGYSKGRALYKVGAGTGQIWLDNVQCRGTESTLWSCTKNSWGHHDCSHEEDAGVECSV
As to the kind of experiment: ELISA readout A450-A620; the panel names no target, the legend says MARCO expressing cells; transiently made reference antibody.

The target of assay [2] is T2, recombinant cynomolgus MARCO protein (cynomolgus, UniProt A0A2K5X0Z2 65-519).
T2 construct: Construct not described; also called cyno MARCO; cynoMARCO
T2 sequence: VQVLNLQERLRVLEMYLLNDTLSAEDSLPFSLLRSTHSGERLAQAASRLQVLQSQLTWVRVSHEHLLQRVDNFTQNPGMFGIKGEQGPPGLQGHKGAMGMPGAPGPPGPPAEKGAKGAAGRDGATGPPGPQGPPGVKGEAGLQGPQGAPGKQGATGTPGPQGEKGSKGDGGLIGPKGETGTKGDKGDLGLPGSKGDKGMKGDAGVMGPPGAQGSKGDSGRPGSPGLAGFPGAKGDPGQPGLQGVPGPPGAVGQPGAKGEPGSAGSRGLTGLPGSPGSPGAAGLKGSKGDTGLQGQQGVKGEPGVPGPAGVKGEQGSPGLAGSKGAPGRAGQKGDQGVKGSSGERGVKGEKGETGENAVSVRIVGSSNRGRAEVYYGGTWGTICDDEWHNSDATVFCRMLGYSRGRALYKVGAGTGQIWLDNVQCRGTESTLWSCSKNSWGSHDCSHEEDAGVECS
Kind of assay: Biacore (SPR), recombinant cyno MARCO. For orientation: Surface plasmon resonance follows binding to a sensor surface in real time, without labels.

For assay [3], the target named is T3, Human Macrophage Receptor with Collagenous Structure (MARCO), full length, on cells (human, UniProt Q9UEW3 1-520).
T3 construct: the cell type is named under assay; also called huMARCO; HuMARCO
T3 sequence: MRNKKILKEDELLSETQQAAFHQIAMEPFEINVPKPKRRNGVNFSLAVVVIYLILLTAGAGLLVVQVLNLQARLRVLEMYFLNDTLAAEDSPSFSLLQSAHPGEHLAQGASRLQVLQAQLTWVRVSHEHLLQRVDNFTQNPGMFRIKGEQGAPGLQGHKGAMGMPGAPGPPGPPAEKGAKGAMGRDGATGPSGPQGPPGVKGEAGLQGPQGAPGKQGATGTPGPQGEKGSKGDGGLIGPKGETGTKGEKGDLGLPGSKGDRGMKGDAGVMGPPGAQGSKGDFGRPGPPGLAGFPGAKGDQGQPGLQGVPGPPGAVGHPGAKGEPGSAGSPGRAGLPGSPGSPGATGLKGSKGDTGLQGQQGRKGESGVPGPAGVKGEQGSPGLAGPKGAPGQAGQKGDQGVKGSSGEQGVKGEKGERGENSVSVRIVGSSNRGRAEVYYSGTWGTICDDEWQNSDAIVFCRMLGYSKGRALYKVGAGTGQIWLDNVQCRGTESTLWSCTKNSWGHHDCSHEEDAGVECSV
As to the kind of experiment: flow cytometry, cells overexpressing human MARCO; hu (first of hu/cyn). (In flow cytometry, cells or beads pass a laser one at a time.)

In assay [4] the target is T4, Cynomolgus MARCO, full length, on cells (cynomolgus, UniProt A0A2K5X0Z2 1-519).
T4 construct: whole, on cells; also called cyno MARCO; CyMARCO
T4 sequence: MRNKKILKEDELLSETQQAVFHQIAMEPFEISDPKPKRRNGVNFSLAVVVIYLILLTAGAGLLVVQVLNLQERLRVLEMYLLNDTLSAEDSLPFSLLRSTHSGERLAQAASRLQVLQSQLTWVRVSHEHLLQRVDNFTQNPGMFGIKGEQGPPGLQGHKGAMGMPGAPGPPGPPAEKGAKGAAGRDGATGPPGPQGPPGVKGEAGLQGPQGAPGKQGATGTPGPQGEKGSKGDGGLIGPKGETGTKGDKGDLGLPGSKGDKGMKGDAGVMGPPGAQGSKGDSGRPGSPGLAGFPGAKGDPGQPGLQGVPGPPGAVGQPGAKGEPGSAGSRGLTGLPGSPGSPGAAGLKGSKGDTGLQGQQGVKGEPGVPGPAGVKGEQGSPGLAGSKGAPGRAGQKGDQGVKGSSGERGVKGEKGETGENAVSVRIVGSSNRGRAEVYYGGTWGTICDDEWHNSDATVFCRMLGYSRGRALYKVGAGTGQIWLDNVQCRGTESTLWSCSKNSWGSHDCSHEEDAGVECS
As to the kind of experiment: flow cytometry, cells overexpressing cyno MARCO; cyn (second of hu/cyn).

Assay [5] addresses T1, N-terminally polyhistidine tagged human …. As to the kind of experiment: Biacore; deamidation stress sample (40 C 2 week).
For assay [6] the target is unchanged. As to the kind of experiment: KD (nM) Human; method not given.
A further assay addresses T5, mVar3 (RG3028) (mouse, UniProt Q60754 150-518).
T5 construct: Mouse MARCO with the human residues Q452, Y472 and K473 (already in the entry)
T5 chain: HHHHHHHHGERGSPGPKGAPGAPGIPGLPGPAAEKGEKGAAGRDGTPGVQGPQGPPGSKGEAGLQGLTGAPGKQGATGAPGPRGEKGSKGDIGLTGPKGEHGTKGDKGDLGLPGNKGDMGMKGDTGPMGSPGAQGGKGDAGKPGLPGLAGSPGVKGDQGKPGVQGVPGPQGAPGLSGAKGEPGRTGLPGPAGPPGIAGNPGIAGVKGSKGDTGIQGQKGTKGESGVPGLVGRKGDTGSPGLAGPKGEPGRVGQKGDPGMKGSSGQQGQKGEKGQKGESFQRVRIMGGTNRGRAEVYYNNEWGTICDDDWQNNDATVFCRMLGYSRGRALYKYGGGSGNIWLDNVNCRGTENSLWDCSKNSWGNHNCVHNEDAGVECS
As to the kind of experiment: binding to variant proteins, data not shown. An outline of the steps: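 Binding to MARCO variant proteins was measured by biolayer interferometry at 37° C in ProbeLife kinetics buffer. Antibodies (200 nM) were captured on anti-mouse or anti-human Fc probes for 120 s between 60 s baselines. This was followed by association with 200 nM variant antigen and 5-10 minutes dissociation.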

Values joined by “and” are separate entries in the source; they are usually repeats but may differ in a detail not shown here. Identical values can stand only once.

B1: PI-3015-AB (antibody, human IgG1, kappa)
heavy: not shown
light: DIQMTQSPSSLSASVGDRVTITCRASEGISNDLAWYQQKPGKAPKLLIYAASRLQSGVPSRFSGSGSGTDYTLTISSMQPEDFATYYCQQSYKYPLTFGQGTKLEIKRTVAAPSVFIFPPSDEQLKSGTASVVCLLNNFYPREAKVQWKVDNALQSGNSQESVTEQDSKDSTYSLSSTLTLSKADYEKHKVYACEVTHQGLSSPVTKSFNRGEC
On to B1, for which, in assay [1], the EC50 (read off the curve) (commonly the concentration needed to bring the measured effect to its halfway point) is roughly 0.2 nM. In addition, the figures for the Kd in assay [2] and in assay [5] were 1.65 nM and 1.24 nM, respectively. In addition, the concentration for a half-maximal effect (EC50) (usually the concentration that produces a half-maximal response) in assay [3] turned out to be 0.798 nM; in assay [4] it was 1.16 nM.

B2: PI-3010-AB (antibody, human IgG1, kappa)
heavy: not shown
light: DIQMTQSPASLSTSLGETVSIECLASEGISNDLAWYQQKSGKSPQLLIYAASRLQDGVPSRFSGSGSGTRYSLKISGMQPEDEADYFCQQSYKYPLTFGSGTKLEIKRTVAAPSVFIFPPSDEQLKSGTASVVCLLNNFYPREAKVQWKVDNALQSGNSQESVTEQDSKDSTYSLSSTLTLSKADYEKHKVYACEVTHQGLSSPVTKSFNRGEC
B2: the dissociation constant (Kd) (commonly the constant that tells how readily two partners part at equilibrium) in assay [6] was 0.43 nM and 0.64 nM. Moreover, the binding result with mVar3 (RG3028) was “binds”.
